Test: protease stability score; higher = more stable; yeast display proteolysis, trypsin and chymotrypsin;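 further: log10 excess protease needed over predicted unfolded state with 0 meaning unfolded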

**Q.** With “DKEEVEKIAREALEAAVKGDEDKLKTYLGPDVKYVLGDQEYQGQQVAELVMKLIKKDGARLQLETLKVEGNTVQAQYQFHVDGVTRKAHITMKVKGGRVDEWQVHIDDHAKEALKKG” as the sequence, how does the protease stability score read?
**A.** 1.28

**Q.** For “DKEEVHKLKHLLRHGDFEKINKKADKDARMQIGDRVYHGREKMKKALEILQREVDDIRVDSIKVSGDRVSAEMHMEVNGRRYVFVVVIRATNGRVVSLKVKARSESQDEHLKNLVE”, which protease stability score is on record?
**A.** 0.625

**Q.** Which protease stability score does the source give for “DKEEVQRIVEEMLKFVESGDIKKLVDHGKEGVRYRLGDEEAHGPEAIKKMVVKMKKVGLRIEVKEYQVEGDTATTKLKYQLGDTEDTVEVNAQAQGGRIDQVNADVDKTAVDMIKQG” here?
**A.** 0.048

**Q.** With “DKEHLKRMVETIIKILETGDPDKMKNLADENVRVEVGDKDVHGKDTLRKHIEEWRRQIDHLEVKSVRVKGNKASIHFVVRVNGTDKTVVVVFDIHNGKIKMVHYTDS” as the sequence, how does the protease stability score read?
**A.** 0.637

**Q.** For “DKEIKDLARQVLTAEKTGDPEQFKKLFDPNVHVEVGDKTVTGREEASREFKKSQQELRIDMKSVSVTVEGNSVDIEIHAHLKVNGRPIDMHFRIILTFHNGKVHHVQLQVSEDQLRKMSQ”, which protease stability score is on record?
**A.** 0.668

**Q.** Which protease stability score does the source give for “DKEILDLVNEFLKAQRDNDPDRVSELADPNVKVHYGDKQIRGREEVNKQVEKEQKEIQVDFRIKHVTVENGRADLNFRYHANVNGQPISFDARIEMQFHNGRLKRLVLRMPEEAVKTMDS” here?
**A.** 0.118

**Q.** For “DKEKEADQQVRTADEIYQTGNPEEAKKLADPNVDVRIGDKEYHGDRELAQIIVEKRERVDSLVFHVERINVHPGRFQLNVVLTLKHNGKHETKKEEFVMTKRNGQLRVVHMRDQ”, which protease stability score is on record?
**A.** 0.056

**Q.** Which protease stability score does the source give for “DKEKEAKKAIDKMITAIQHNDEDRAREMADPNVRIKYGDKQYHGRETMEDWIRTLRNSYDHLDIKLTDMKTDGDKIHIIIQYEADHNGQRTRDRVDLTMRRDNGRVKLVSAKEQ” here?
**A.** 0.232

**Q.** For “DKELQDTAHKLAKNGDFSRLAELADEDVQIKIGDERVTGREEQKKLVEVQQRRIDHVEVDRVHAQGNKVSVNMTIVVDGESRTVNIDITMHNGRVKEIVYNATSEEARKEMTKWYR”, which protease stability score is on record?
**A.** -0.362

**Q.** For “DKELRHSWEDQLRAEEEGDENRLRELIDPNASFVVGDKSIHGREQFADDMRRKLTEMRVEIKSYSVHAHNGHLDIKVHRRVNHDGEPKEDTYRADVQADNGRIVRVTIQSDG”, which protease stability score is on record?
**A.** -0.652

**Q.** Which protease stability score does the source give for “DKELRKHLTEFVKNYQHGNERELNKYADPNVKFRYGDKTLNGREEWMKHIQRLKKEIRFEIDDFRIRARNGELDMTFDFKQEVNGRPKSDRAQMNVVMHNGKIVEIDFRVDPTFEKEVKG” here?
**A.** 0.376

**Q.** For “DKELWEWFRRWLENYRTGNHNNIREMADPNVRMVVGDKHISGREHYAEEVSRQVHKLRVSLDFKDYDLRPNRVNVDAVIRMTSDGEPDQSKWSQTLQFSNGRLHQANVTMNQ”, which protease stability score is on record?
**A.** 0.192

**Q.** With “DKEMASVVERWLDALQRNDPDQANNNADKDATFDVGDKKVKGRDTLKKLVEDLRREMRFNITSMSITVHGDKVVVTYRVSMQHDGQPMQHRYFLHAQDKNGHIHNLHVQKSD” as the sequence, how does the protease stability score read?
**A.** 0.44

**Q.** Which protease stability score does the source give for “DKENLETLHELMTALERGDEQKVADEIDPNAKLQYGDKEIHGRKQAHRFIKTVKDQQRFHIQVKDLKVKGDTMDLRAEVEFQHNGHPDSDVIVVNARAHNGHISTLTVTKDD” here?
**A.** -0.223

**Q.** For “DKEVEEVWKKMLTAQKYGDEKRYKDLADPNVKYNIGDKKIDGRDTYAEEMKKRRDEIRLRMQITDVKQQGDKLHVRFKIEAEINGKPISEDVTAVLVNHNGKVKHYSMHVPHEFFKKQQK”, which protease stability score is on record?
**A.** 0.213

**Q.** Which protease stability score does the source give for “DKEVIKQLKHFMKALEKGDPDKLVELADPEAKYEYGDRTYKGMSNVAEELVNTRREIRFQLTLQSYEVQGEKARVKAVYVKDRNGKPDNQVVVIEMEAHNGKIKSMQERSDQ” here?
**A.** 0.501

**Q.** For “DKEVNNMAEKFLDAFRTNDPDQVRRLADENASFRVGDKVLTGMTEAVRELHRQVKQMEVRITDVKNSVQGDQANLDIHFDVHDNGKPDTRRMVLVVNVENGRIREVEVNQDD”, which protease stability score is on record?
**A.** 0.4

**Q.** Which protease stability score does the source give for “DKHAAQVVLEIMHAVDTGNENEVMKLIDPNARVEYGDKSITGREDIARHLIHDAKHINRRWSLKDIDVQGEKVFIKFEYKTNKNGRPDKADVNLEAKAHNGTVTTMRLQETR” here?
**A.** 0.368

**Q.** With “DKHLEDLARTLVHALRTGDPQMINHLFDENARVEVGNRRVHGREDANQRMKEINSQARMHVRLTSLRVDENRADLTVDASARVNGQPNTLRYQFWFHQHNGRITSMSARMSEHDVKQFES” as the sequence, how does the protease stability score read?
**A.** -0.278

**Q.** For “DKHQMHILKSIVENEQKGDEKSVSKMVDPNARFHVGDKRISGREQKDEDVQRKKDEIRVQIDKVEFNHSNGRVVVNMDMTIDRNGKPKTFKAQAHATFHNGTATSQTQTNDG”, which protease stability score is on record?
**A.** -0.614

**Q.** Which protease stability score does the source give for “DKHRVEHAKRILEIWTNGDEKSVKDLFDPNVRVDVGDKRITGREQLAREWKRRRDEMEWSLTVHEYKDDPNRVDINVHFNRNKNGRPRTQQQHLRIDMDNGSVRQLRIEDSK” here?
**A.** 0.216

**Q.** Which protease stability score does the source give for “DKKANSMAHDLIRNRNSNNPERLKEMMDPNVEIVIGDKTVNGTHEYERQQRQRDRQIQIDVKSVTFKDRPNHAQVRFDAVFHHNGQPDRRVQEVIIRQRNGKVKHIHVQDTE” here?
**A.** -0.365

**Q.** For “DKKDVDRVIKLLEQGDWESLVEMMDENARLQVGNKNYHGRTQVRHAATRLQDRIDHVKIDQVDVHNGRVDARFKANINGKTMDVQVRINVDNGHIKYVRVTVRSEELRHELDRLLS”, which protease stability score is on record?
**A.** 0.961

**Q.** With “DKKEHQEAAETFDRALKRGDPDTAMSLFDKDARANVGDKTYQGSEKLSEAMHRLSEEADRFHVRDVHFTNGEVSVNMYLNVNGKRVQVDVHIELSNGRAKEVTFNPDQLNEMQN” as the sequence, how does the protease stability score read?
**A.** -0.119

**Q.** Which protease stability score does the source give for “DKKLNKQMEEWVQAVNTGDSEQLEDLVDPNVRLEVGDKQFHGREEVRRQQTKKIEEIRLHLDLKDVKAENGHAQLDVNVEFEHNGQPNSNRRTLNAVVHNGKIKHLSDKTDP” here?
**A.** -0.347

**Q.** For “DKKLSRQFREFWRAMEDGDPDKLRENADPNVKYVVGDKTIHGRETYVKEAQDRRREMRVELDTMSINDKGERITVEYVQVNEHNGRPKQAVYRQVILFKNGRIKEVRQTKTD”, which protease stability score is on record?
**A.** -0.073

**Q.** Which protease stability score does the source give for “DKKQVHDVARTLVQYYVSGNSERVKQLGKEDVELHAGDRTYHGVDQMAKVVEQFKKYGVELEVKDVKVDGNRVTARVQFHKAGTTWEFKVDVQADGGKVDQVRVNVTEEAIKHIQHG” here?
**A.** 0.797

**Q.** With “DKNNLKRYDKLLKILQTGDEHKAKKLADPNVKVKVGDKEIKGWDRFVHESAKRWREARIELKIKHVDVSGDKVTIDYEAEVEVNGKPIRYTATFRFVVHNGRIKTINFSMDENQRETVKR” as the sequence, how does the protease stability score read?
**A.** 0.007

**Q.** Which protease stability score does the source give for “DKQDLDKLRELWEDELNGDHRSLREQVDPNAKVEIGDKEIHGRDDFAKDAKRRKEEIRVEMRVKSLSASGDTIDAKVHLDFKVNGKPIRLTVHMHVKVENGKFVDLNVRIDERQVRKIRK” here?
**A.** 0.089

**Q.** For “DKREQSEIAKEVLRMLLTGDPDQNHKLADKDVQFSVGDRTITGREDLDRWLREMHHHIDTQEVKSLDVNGEDVVIDVVATFNGVHMRFVIRVEVHNGRIVNMRMEVTSEETLKRVDG”, which protease stability score is on record?
**A.** -0.092

**Q.** For “DKSANHQIEQLMRNINEGDKDKVREQMDPNVEVHVGDKEVHGREQYAREVRKEQEEMRVQFKVEHVKDRNGQAELRIQVQLDHNGKPETRVQHFVAVLDNGRVKSATAKIDK”, which protease stability score is on record?
**A.** -0.084

**Q.** With “DKSAQDLFRKLLEALDTGDEKTAEENMDPNAHARVGDKEVHGMDEYAKHRATENRRMKIRWNSVNLRVHNGQLNVDVDVEVTENGRPSRSRARVVMRMKNGRIKRLEVNEHK” as the sequence, how does the protease stability score read?
**A.** -0.118

**Q.** With “DKSMQEEMERVARENDFHRLAELADPNVKWQYGDKHLHGRTAQREFVRLNHEAVDHLEVQDVKFHGENVEIDLVMTVNGKEIKVVLQAHVHNGRIKEMRWQVTNEDEKRKLEEAVS” as the sequence, how does the protease stability score read?
**A.** -0.183

**Q.** With “DKTAAHVVHQFLRNVDTGDPKKASDNADPNVTINVGDKEIRGRENLQKEIDKQKKDWRQTVRVTSFKDHNGKVHVDARYTADVNGKPIDDTFQFEMQAHNGKLKYVNVQLDEDKKKEQDS” as the sequence, how does the protease stability score read?
**A.** 0.032

**Q.** For “DKTHAETVRKLVERGNWEELARMADKDAHVNYGNKSVHGRERVESLLKRFSSRVDHVDLKDVDVQGDHVHMRYVAVFDGRRVDVSAVIFVDNGRIKSIHYRATDEEVKRRMDELLD”, which protease stability score is on record?
**A.** 1.33

**Q.** With “DNDAMRQANTLVEILNTGDPDRFVEYVDPNVDIKIGDKSIHGREDARRWVTELKRQMHIHLSVKRVDVEGEHLNLHADQVNDENGQPDKDHVLIIMRFHNGRVKVLKQEHKS” as the sequence, how does the protease stability score read?
**A.** 0.53

Source: the NTF2 design screens of Basanta et al. (2020)
